PMC3699407 (Nature biotechnology, 2012)

Biological target: the molecule itself
Assay: SEC

B1: wild-type pea cytosolic ascorbate peroxidase (APX) (enzyme)
chain: GKSYPTVSPDYQKAIEKAKRKLRGFIAEKKCAPLILRLAWHSAGTFDSKTKTGGPFGTIKHQAELAHGANNGLDIAVRLLEPIKEQFPIVSYADFYQLAGVVAVEITGGPEVPFHPGREDKPEPPPEGRLPDATKGSDHLRDVFGKAMGLSDQDIVALSGGHTIGAAHKERSGFEGPWTSNPLIFDNSYFTELLTGEKDGLLQLPSDKALLTDSVFRPLVEKYAADEDVFFADYAEAHLKLSELGFAEA
stoichiometry N: 2
